Measured values: paper PMC13457854 (Cell Discovery, 2026)
Blank lines part the entries; values can stand above or below the binder they belong to.

Legend:
[1] = target: T1, BTN3A1/BTN3A2 heterodimer (human, UniProt O00481 30-513; P78410 30-334); assay: AUC; sedimentation velocity, 40,000 rpm, 20 °C, 25 mM HEPES pH 7.4, 150 mM NaCl, 0.02% GDN, absorbance at 280 nm; no HMBPP (3A2 complex also with 40 μM HMBPP: less of the high-mass species); settings: both partners purified
T1 construct: BTN3A1, human; synthetic signal peptide fused to the N-terminus; BTN3A2, human; copies: 1 + 1

[2] = target: T2, BTN3A1 (human, UniProt O00481 30-513); assay: as above; settings: both partners purified
T2 construct: BTN3A1, human, codon-optimised synthetic cDNA; Construct details are in the Supplementary Information; source: ExpiHEK293F, transfected; purified within the 3A2/3A3 complex (anti-Flag, Strep-Tactin XT, SEC)
T2 sequence (O00481 30-513): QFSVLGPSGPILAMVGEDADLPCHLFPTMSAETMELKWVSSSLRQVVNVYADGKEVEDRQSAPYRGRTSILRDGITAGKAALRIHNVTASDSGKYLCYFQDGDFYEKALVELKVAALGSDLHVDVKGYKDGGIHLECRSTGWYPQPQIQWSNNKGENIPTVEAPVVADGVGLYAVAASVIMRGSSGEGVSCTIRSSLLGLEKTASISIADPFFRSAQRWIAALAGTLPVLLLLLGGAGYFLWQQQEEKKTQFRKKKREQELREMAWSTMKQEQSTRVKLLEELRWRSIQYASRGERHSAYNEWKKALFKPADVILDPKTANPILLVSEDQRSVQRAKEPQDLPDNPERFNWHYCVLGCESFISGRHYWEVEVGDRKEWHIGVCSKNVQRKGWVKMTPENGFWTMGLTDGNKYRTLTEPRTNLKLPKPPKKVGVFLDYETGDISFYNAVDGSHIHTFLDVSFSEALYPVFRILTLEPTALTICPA

- binding result [1]: binds
B1: BTN2A1 (natural protein, human, UniProt Q7KYR7 29-527, looked up)
chain: QFIVVGPTDPILATVGENTTLRCHLSPEKNAEDMEVRWFRSQFSPAVFVYKGGRERTEEQMEEYRGRTTFVSKDISRGSVALVIHNITAQENGTYRCYFQEGRSYDEAILHLVVAGLGSKPLISMRGHEDGGIRLECISRGWYPKPLTVWRDPYGGVAPALKEVSMPDADGLFMVTTAVIIRDKSVRNMSCSINNTLLGQKKESVIFIPESFMPSVSPCAVALPIIVVILMIPIAVCIYWINKLQKEKKILSGEKEFERETREIALKELEKERVQKEEELQVKEKLQEELRWRRTFLHAVDVVLDPDTAHPDLFLSEDRRSVRRCPFRHLGESVPDNPERFDSQPCVLGRESFASGKHYWEVEVENVIEWTVGVCRDSVERKGEVLLIPQNGFWTLEMHKGQYRAVSSPDRILPLKESLCRVGVFLDYEAGDVSFYNMRDRSHIYTCPRSAFSVPVRPFFRLGCEDSPIFICPALTGANGVTVPEEGLTLHRVGTHQSL
notes: BTN2A1, human, codon-optimised synthetic cDNA; construct details are in the Supplementary Information; also called BTN2A1 homodimer; BTN2A1 dimer; source: ExpiHEK293F, transfected; purified within the 3A2/3A3 complex (anti-Flag, Strep-Tactin XT, SEC)

- binding result [2]: binds
B2: BTN3A2 (natural protein)
chain: not shown
notes: BTN3A2, human, codon-optimised synthetic cDNA; Construct details are in the Supplementary Information; source: ExpiHEK293F, transfected; purified within the 3A2 complex (anti-Flag, Strep-Tactin XT, SEC)
